Results from patent US20250304667A1 (ALLERGAN, published 2025).
Read-outs that look alike come from different tables or passages of the source.

What was measured:
[1] = molecular target: Soluble C5b-9 (CompTech, A127) (UniProt P01031); test: BLI (Octet), antibody amine-coupled to AR2G tips, soluble C5b-9 at 30 ug/ml, 300 s association (Example 8)
[2] = molecular target: insoluble C5b-9 complex deposited on IgM-coated ELISA plates after complement activation of normal human serum (human) (UniProt P01031); test: ELISA on C5b-9 deposited on IgM-coated plates from 2% normal human serum, anti-mouse HRP, Abs 450nm (Example 7)
[3] = molecular target: Soluble C5b-9 (CompTech, A127) (UniProt P01031); test: BLI (Octet), antibody amine-coupled to AR2G tips, soluble C5b-9 at 30 ug/ml, 300 s association (Example 8); remark: listed apart in the source
[4] = molecular target: T1, human complement Component 5 (C5) (human, UniProt P01031 19-1676, limits assumed); test: cell-based or functional assay
T1 sequence (P01031 19-1676 limits assumed): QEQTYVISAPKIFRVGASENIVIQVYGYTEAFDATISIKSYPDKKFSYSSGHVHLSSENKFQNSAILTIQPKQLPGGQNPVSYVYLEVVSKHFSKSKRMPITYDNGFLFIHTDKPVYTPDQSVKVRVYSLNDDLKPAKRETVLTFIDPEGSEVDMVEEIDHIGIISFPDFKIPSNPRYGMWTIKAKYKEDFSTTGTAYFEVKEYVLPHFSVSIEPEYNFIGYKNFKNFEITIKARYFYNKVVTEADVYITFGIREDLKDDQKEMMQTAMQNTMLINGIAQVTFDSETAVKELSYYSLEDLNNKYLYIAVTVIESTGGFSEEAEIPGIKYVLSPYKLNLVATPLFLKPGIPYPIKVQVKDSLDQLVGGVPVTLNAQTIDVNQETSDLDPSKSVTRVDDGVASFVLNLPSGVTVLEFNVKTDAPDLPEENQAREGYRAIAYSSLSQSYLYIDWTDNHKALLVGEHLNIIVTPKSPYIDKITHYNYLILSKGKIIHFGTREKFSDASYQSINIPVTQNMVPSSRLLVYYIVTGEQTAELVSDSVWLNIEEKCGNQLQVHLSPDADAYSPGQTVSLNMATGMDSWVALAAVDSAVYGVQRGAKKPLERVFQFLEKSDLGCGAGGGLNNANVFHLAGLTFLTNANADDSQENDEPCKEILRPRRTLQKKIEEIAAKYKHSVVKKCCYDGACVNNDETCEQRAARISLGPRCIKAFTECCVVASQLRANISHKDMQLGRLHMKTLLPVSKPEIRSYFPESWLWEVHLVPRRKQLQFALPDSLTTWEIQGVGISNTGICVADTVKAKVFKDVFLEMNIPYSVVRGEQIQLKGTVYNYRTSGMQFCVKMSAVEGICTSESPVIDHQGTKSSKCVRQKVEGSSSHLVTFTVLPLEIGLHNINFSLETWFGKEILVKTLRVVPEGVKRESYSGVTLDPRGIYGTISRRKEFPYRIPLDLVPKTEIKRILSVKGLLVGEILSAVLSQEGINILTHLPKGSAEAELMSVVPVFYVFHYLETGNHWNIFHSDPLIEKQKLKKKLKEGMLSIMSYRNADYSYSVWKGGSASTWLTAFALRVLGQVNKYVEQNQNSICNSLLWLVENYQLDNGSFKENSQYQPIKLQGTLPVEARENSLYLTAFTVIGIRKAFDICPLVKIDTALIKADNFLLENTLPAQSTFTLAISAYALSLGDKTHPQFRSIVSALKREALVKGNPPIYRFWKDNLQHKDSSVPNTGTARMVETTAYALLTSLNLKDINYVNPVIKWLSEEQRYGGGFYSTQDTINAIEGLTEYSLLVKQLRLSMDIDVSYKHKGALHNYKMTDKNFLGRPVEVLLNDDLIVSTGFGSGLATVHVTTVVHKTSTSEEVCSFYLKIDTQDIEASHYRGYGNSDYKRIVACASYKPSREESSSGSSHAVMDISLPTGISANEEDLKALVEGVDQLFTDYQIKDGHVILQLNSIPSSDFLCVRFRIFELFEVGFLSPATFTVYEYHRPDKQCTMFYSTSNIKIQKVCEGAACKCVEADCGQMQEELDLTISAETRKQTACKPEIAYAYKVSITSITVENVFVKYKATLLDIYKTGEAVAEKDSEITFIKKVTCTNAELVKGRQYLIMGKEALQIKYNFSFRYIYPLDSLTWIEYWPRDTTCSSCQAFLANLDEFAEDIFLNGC

[5] = molecular target: T1, human complement Component 5 (C5); test: cell-based or functional assay; remark: listed apart in the source
[6] = molecular target: T1, human complement Component 5 (C5); test: cell-based or functional assay; remark: listed apart in the source
[7] = molecular target: T1, human complement Component 5 (C5); test: cell-based or functional assay; remark: listed apart in the source

Row | Molecule | IC50 (read off the curve), % Inhibition [4] [µg/mL] | IC50 (read off the curve), OD (450nM) [5] [µg/mL] | IC50 (read off the curve), OD (450nM) [6] [µg/mL] | IC50 (read off the curve), % Inhibition [7] [µg/mL] | also measured
1 | anti-C5b-9 mouse monoclonal antibody (Quidel A239) | – | – | – | – | Displacement @ 300s. [1]: 0.67 nm; EC50 (read off the curve) [2]: 0.04 µg/mL; Displacement @ 300s. [3]: 0.86 nm
2 | H1L3-IgG (antibody, V domains shown) VH: QVQLVQSGAEVKKPGASVKVSCKASGYTFTDEYMNWVRQAPGQSLEWMGYINPNNGGADYNQKFQGRVTMTVDQSISTAYMELSRLRSDDTAVYFCARLGYSNPYFDFWGQGTLVTVSS VL: DIVLTQSPSFLSASVGDRVTITCQASQDVNTAVAWYLQKPGKSPKLLIYWASTRHTGVPARFTGSGSGTDYTLTISSLQPEDFAVYFCQQHHVSPWTFGGGTKVEIK | ~3 | ~0.5 | – | – | –
3 | H5L4-Fab (Fab, V domains shown) VH: QVQLKQSGAEVKKPGASVKVSCKASGYTFTDEYMNWVRQAPGKSLEWMGYINPNNGGADYNQKFQGRVTMTVDQSISTAYMELSRLRSDDTAVYFCARLGYSNPYFDFWGQGTLVTVSS VL: DIVLTQSPATLSLSPGERATLSCRASQDVNTAVAWYQQKPGKSPKLLIYWASTRHTGVPARFTGSGSGTDYTLTISSLQPEDFAVYFCQQHHVSPWTFGGGTKVEIK | – | – | ~0.4 | ~2 | –
4 | H5L4-IgG (antibody, V domains shown) VH: QVQLKQSGAEVKKPGASVKVSCKASGYTFTDEYMNWVRQAPGKSLEWMGYINPNNGGADYNQKFQGRVTMTVDQSISTAYMELSRLRSDDTAVYFCARLGYSNPYFDFWGQGTLVTVSS VL: DIVLTQSPATLSLSPGERATLSCRASQDVNTAVAWYQQKPGKSPKLLIYWASTRHTGVPARFTGSGSGTDYTLTISSLQPEDFAVYFCQQHHVSPWTFGGGTKVEIK | ~3 | ~0.5 | – | – | –
5 | H3L3-Fab (Fab, V domains shown) VH: QVQLVQSGAEVKKPGASVKVSCKASGYTFTDEYMNWVRQAPGQSLEWMGYINPNNGGADYNPSLKSRVTISVDQSISTAYMELSRLRSDDTAVYFCARLGYSNPYFDFWGQGTLVTVSS VL: DIVLTQSPSFLSASVGDRVTITCQASQDVNTAVAWYLQKPGKSPKLLIYWASTRHTGVPARFTGSGSGTDYTLTISSLQPEDFAVYFCQQHHVSPWTFGGGTKVEIK | – | – | ~0.5 | – | –
6 | H1L4-IgG (antibody, V domains shown) VH: QVQLVQSGAEVKKPGASVKVSCKASGYTFTDEYMNWVRQAPGQSLEWMGYINPNNGGADYNQKFQGRVTMTVDQSISTAYMELSRLRSDDTAVYFCARLGYSNPYFDFWGQGTLVTVSS VL: DIVLTQSPATLSLSPGERATLSCRASQDVNTAVAWYQQKPGKSPKLLIYWASTRHTGVPARFTGSGSGTDYTLTISSLQPEDFAVYFCQQHHVSPWTFGGGTKVEIK | ~3 | ~0.5 | – | – | –
7 | H1L4-Fab (Fab, V domains shown) VH: QVQLVQSGAEVKKPGASVKVSCKASGYTFTDEYMNWVRQAPGQSLEWMGYINPNNGGADYNQKFQGRVTMTVDQSISTAYMELSRLRSDDTAVYFCARLGYSNPYFDFWGQGTLVTVSS VL: DIVLTQSPATLSLSPGERATLSCRASQDVNTAVAWYQQKPGKSPKLLIYWASTRHTGVPARFTGSGSGTDYTLTISSLQPEDFAVYFCQQHHVSPWTFGGGTKVEIK | – | – | ~0.4 | ~2 | –
8 | H5L3-Fab (Fab, V domains shown) VH: QVQLKQSGAEVKKPGASVKVSCKASGYTFTDEYMNWVRQAPGKSLEWMGYINPNNGGADYNQKFQGRVTMTVDQSISTAYMELSRLRSDDTAVYFCARLGYSNPYFDFWGQGTLVTVSS VL: DIVLTQSPSFLSASVGDRVTITCQASQDVNTAVAWYLQKPGKSPKLLIYWASTRHTGVPARFTGSGSGTDYTLTISSLQPEDFAVYFCQQHHVSPWTFGGGTKVEIK | – | – | ~0.4 | ~2 | –
